Experimental data reported in PMC3902925, “The double PHD finger domain of MOZ/MYST3 induces α-helical structure of the histone H3 tail to facilitate acetylation and methylation sampling and modification” (Nucleic Acids Research, 2013).

Biological target: histone H3 of calf thymus core histones (bovine (calf thymus), UniProt P68432 1-136)
Test: cell-based or functional assay

- initial rate of acetylation of core histones in time course HAT assays, DPF-MYST (194–810) against the MYST domain (510–810) alone: ≥ 8 fold
B1: GST-MOZ DPF-MYST (194–810) (enzyme)
chain: LPHEKDKPVAEPIPICSFCLGTKEQNREKKPEELISCADCGNSGHPSCLKFSPELTVRVKALRWQCIECKTCSSCRDQGKNADNMLFCDSCDRGFHMECCDPPLTRMPKGMWICQICRPRKKGRKLLQKKAAQIKRRYTNPIGRPKNRLKKQNTVSKGPFSKVRTGPGRGRKRKITLSSQSASSSSEEGYLERIDGLDFCRDSNVSLKFNKKTKGLIDGLTKFFTPSPDGRKARGEVVDYSEQYRIRKRGNRKSSTSDWPTDNQDGWDGKQENEERLFGSQEIMTEKDMELFRDIQEQALQKVGVTGPPDPQVRCPSVIEFGKYEIHTWYSSPYPQEYSRLPKLYLCEFCLKYMKSRTILQQHMKKCGWFHPPANEIYRKNNISVFEVDGNVSTIYCQNLCLLAKLFLDHKTLYYDVEPFLFYVLTQNDVKGCHLVGYFSKEKHCQQKYNVSCIMILPQYQRKGYGRFLIDFSYLLSKREGQAGSPEKPLSDLGRLSYMAYWKSVILECLYHQNDKQISIKKLSKLTGICPQDITSTLHHLRMLDFRSDQFVIIRREKLIQDHMAKLQLNLRPVDVDPECLRWTPVIVSNSVVSEEEEEEAEEGENEEPQCQERELE
